Results on 35 molecules are retold here after patent US20190153059A1 (ADEPTHERA, published 2019).

Square brackets hold non-standard residues; d marks the D form. Ends that are not written are not given here. * marks the point of attachment. Palmitoyl = CCCCCCCCCCCCCCCC(=O)*; AEEA = NCCOCCOCC(=O)O

Common to all, as to assay: cell-based or functional assay
Assay [1] deals with T1, CLR/RAMP1 receptor (UniProt Q16602 23-461; O60894 27-148, limits assumed).
The target of assay [2] is CLR/RAMP2 receptor (UniProt Q16602 23-461; O60895 43-175, limits assumed).
CLR/RAMP2 receptor, sequence (Q16602 23-461 limits assumed, chain 1 of 2): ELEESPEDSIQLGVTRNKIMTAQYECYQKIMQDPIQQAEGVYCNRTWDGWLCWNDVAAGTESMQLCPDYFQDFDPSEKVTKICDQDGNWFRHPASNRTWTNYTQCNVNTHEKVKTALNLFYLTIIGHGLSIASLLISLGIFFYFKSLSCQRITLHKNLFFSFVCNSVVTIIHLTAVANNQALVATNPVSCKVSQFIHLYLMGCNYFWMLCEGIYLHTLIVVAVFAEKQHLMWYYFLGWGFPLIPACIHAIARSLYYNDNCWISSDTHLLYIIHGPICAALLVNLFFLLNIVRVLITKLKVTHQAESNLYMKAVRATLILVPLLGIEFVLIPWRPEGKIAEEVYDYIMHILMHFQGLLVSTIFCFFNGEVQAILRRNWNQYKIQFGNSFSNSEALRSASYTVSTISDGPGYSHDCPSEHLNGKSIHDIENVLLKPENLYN
CLR/RAMP2 receptor, sequence (O60895 43-175 limits assumed, chain 2 of 2): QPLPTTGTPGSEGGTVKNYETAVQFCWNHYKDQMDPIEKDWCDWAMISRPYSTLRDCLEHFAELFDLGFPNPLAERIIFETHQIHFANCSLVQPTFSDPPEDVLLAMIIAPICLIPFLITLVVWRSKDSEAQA
Assay [3] addresses T1, CLR/RAMP1 receptor. This is another data set of the same source.

T1 sequence (Q16602 23-461 limits assumed, chain 1 of 2): as the sequence (Q16602 23-461 limits assumed, chain 1 of 2) above
T1 sequence (O60894 27-148 limits assumed, chain 2 of 2): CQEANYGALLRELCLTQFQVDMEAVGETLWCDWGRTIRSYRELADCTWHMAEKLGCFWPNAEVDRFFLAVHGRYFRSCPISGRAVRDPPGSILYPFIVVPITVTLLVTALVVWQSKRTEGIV

B1: SEQ ID NO: 44 (peptide)
peptide: Palmitoyl-KCRFGTCTVQKLAHQIYQFTDKDKDNSAPVDPSSPHSY-NH2
modifications: ends and bridges not checked
For the molecule B1, the “CLR/RAMP1 EC50” value in assay [1] was 0.1 nM. In assay [2], the “CLR/RAMP2 EC50” value came out at 0.2 nM.

B2: SEQ ID NO: 93 (peptide)
peptide: Ac-KGCRFGTCTVQKLAHQIYQFTDKDSAPVDPSSPHSY-NH2
modifications: cysteine pairing not given here
Regarding B2, in assay [1], the “CLR/RAMP1 EC50” value is 771 nM. In addition, the “CLR/RAMP2 EC50” value in assay [2] was found to be 17 nM.

B3: SEQ ID NO: 213 (peptide)
peptide: KGCRFGTCTVQKLAHQIYQFTDKDVAPRSKISPQGY
modifications: miniPEG- at N-terminus; K(PAL); (D-Ser) in ...VAPR(D-Ser)KISPQGY; -NH2
B3: in assay [2], the “CLR/RAMP2 EC50” value turned out to be 0.7 nM and the “CLR/RAMP2 Max Activity” value was 107 % of positive control.

B4: SEQ ID NO: 211 (peptide)
peptide: KGCRFGTCTVQKLAHQIYQFTDKDVAPRSKISPQGY
modifications: miniPEG- at N-terminus; K(PAL); (D-Val) in ...GTCT(D-Val)QKL...; -NH2
For the molecule B4, the “CLR/RAMP1 EC50” value in assay [1] was 8 nM. In addition, in assay [2], the “CLR/RAMP2 EC50” value worked out at 0.9 nM and the “CLR/RAMP2 Max Activity” value was 22 % of positive control.

B5: SEQ ID NO: 214 (peptide)
peptide: KGCRFGTCTVQKLAHQIYQFTDKDVAPRSKISPQGY
modifications: miniPEG- at N-terminus; K(PAL); (D-Gln) in ...KISP(D-Gln)GY; -NH2
Consider B5, for which, in assay [2], the “CLR/RAMP2 EC50” value came out at 0.4 nM and the “CLR/RAMP2 Max Activity” value is 99 % of positive control.

B6: SEQ ID NO: 43 (peptide)
peptide: [AEEA]K(Palmitoyl)CRFGTCTVQKLAHQIYQFTDKDKDNSAPVDPSSPHSY-NH2
modifications: ends and bridges not checked
Take B6: in assay [1], the “CLR/RAMP1 EC50” value was found to be 0.5 nM and the “CLR/RAMP1 Max Activity” value was 39 % of positive control. Further, in assay [2], the “CLR/RAMP2 EC50” value was found to be 0.2 nM and the “CLR/RAMP2 Max Activity” value was 30 % of positive control.

B7: SEQ ID NO: 151 (peptide)
peptide: KGCRFGTCTVQKLAHQIYQFTDKDKDNVAPRSKISPQGY
modifications: Ace-PEG3- at N-terminus; K(Hexadecanoyl-isoGlu); -NH2
Turning to B7, the “CLR/RAMP1 EC50” value in assay [1] was found to be 0.5 nM.

B8: SEQ ID NO: 155 (peptide)
peptide: KGCRFGTCTVQKLAHQIYQFTDKDKDNVAPRSKISPQGY
modifications: Ace-PEG3- at N-terminus; K([19-carboxy-nonadecanoyl]-isoGlu); -NH2
B8: the “CLR/RAMP1 EC50” value in assay [1] is 0.6 nM.

B9: SEQ ID NO: 73 (peptide)
peptide: KGCRFGTCTVQKLAHQIYQFTDKDKDNVAPRSKISPQGY
modifications: Pal- at N-terminus; K(Pal); -NH2
B9: the “CLR/RAMP1 EC50” value in assay [1] was found to be 34 nM. Further, in assay [2], the “CLR/RAMP2 EC50” value was 49 nM.

B10: SEQ ID NO: 156 (peptide)
peptide: KGCRFGTCTVQKLAHQIYQFTDKDKDNVAPRSKISPQGY
modifications: Ace-PEG3- at N-terminus; K([19-carboxy-nonadecanoyl]-PEG3-isoGlu); -NH2
Regarding B10, in assay [1], the “CLR/RAMP1 EC50” value turned out to be 0.8 nM and the “CLR/RAMP1 Max Activity” value was 88 % of positive control.

B11: SEQ ID NO: 34 (peptide)
peptide: Palmitoyl-KGCRFGTCTVQKLAHQIYQFTDKDKDNVAPVDPSSPHSY-NH2
modifications: ends and bridges not checked
Turning to B11, in assay [1], the “CLR/RAMP1 EC50” value is 0.2 nM. For the same molecule, in assay [2], the “CLR/RAMP2 EC50” value worked out at 0.7 nM.

B12: SEQ ID NO: 57 (peptide)
peptide: Ac-VGCRFGTCTVQKLAHQIYQFTPAGRQDSAPVDPSSPHSY-NH2
modifications: ends and bridges not checked
As to B12, the “CLR/RAMP1 EC50” value in assay [1] is 909 nM. In addition, the “CLR/RAMP2 EC50” value in assay [2] was determined as 149 nM.

B13: SEQ ID NO: 59 (peptide)
peptide: Ac-KGCRFGTCTVQKLAHQIYQFTDKDKDNSAPVDPSSPHSY-NH2
modifications: ends and bridges not checked
With B13, the “CLR/RAMP1 EC50” value in assay [1] was determined as 31 nM. Further, the “CLR/RAMP2 EC50” value in assay [2] came to 18 nM.

B14: SEQ ID NO: 35 (peptide)
peptide: Palmitoyl-KGCRFGTCTVQKLAHQIYQFTDKDKQDSAPVDPSSPHSY-NH2
modifications: ends and bridges not checked
In the case of B14, the “CLR/RAMP1 EC50” value in assay [1] was found to be 0.8 nM. For the same molecule, in assay [2], the “CLR/RAMP2 EC50” value came to 1 nM.

B15: SEQ ID NO: 145 (peptide)
peptide: YAGFLKVQKLSAPVDPSSPHSY
modifications: Ace- at N-terminus; (D-Ala) and (D-Leu) in Y(D-Ala)GF(D-Leu); miniPEG before K(Pal); K(Pal); -NH2
For B15, in assay [3], the “CLR/RAMP1 IC50” value was < 0.5 nM and the “CLR/RAMP1 Max Activity (antagonist)” value is 99 % of positive control.

B16: SEQ ID NO: 56 (peptide)
peptide: Ac-VGCRFGTCTVQKLAHQIYQFTDKDKDNSAPVDPSSPHSY-NH2
modifications: ends and bridges not checked
Turning to B16, in assay [1], the “CLR/RAMP1 EC50” value was determined as 224 nM. The “CLR/RAMP2 EC50” value in assay [2] stood at 17 nM.

B17: SEQ ID NO: 38 (peptide)
peptide: Palmitoyl-KTKKTLRTGCRFGTCTVQKLAHQIYQFTDKDKDNSAPVDPSSPHSY-NH2
modifications: ends and bridges not checked
As for B17, the “CLR/RAMP1 EC50” value in assay [1] was determined as 0.5 nM. Moreover, the “CLR/RAMP2 EC50” value in assay [2] came to 0.7 nM.

B18: SEQ ID NO: 39 (peptide)
peptide: Ac-TK(Palmitoyl)KTLRTGCRFGTCTVQKLAHQIYQFTDKDKDNSAPVDPSSPHSY-NH2
modifications: ends and bridges not checked
For the molecule B18, in assay [1], the “CLR/RAMP1 EC50” value stood at 0.2 nM. The “CLR/RAMP2 EC50” value in assay [2] came to 0.5 nM.

B19: SEQ ID NO: 65 (peptide)
peptide: Ac-K(Palmitoyl)GCRFGTCTVQKLAHQIYQFTDKDKDNVAPRSKSSPHSY-NH2
modifications: ends and bridges not checked
For B19, in assay [1], the “CLR/RAMP1 EC50” value came to 234 nM. Moreover, the “CLR/RAMP2 EC50” value in assay [2] came out at 19 nM.

B20: SEQ ID NO: 62 (peptide)
peptide: [AEEA]K(Palmitoyl)GCRFGTCTVQKLAHLWQLMGPAGRQDSAPVDPSSPHSY-NH2
modifications: not fully specified; ends and bridges not checked
Regarding B20, the “CLR/RAMP1 Max Activity” value in assay [1] is 2 % of positive control.

B21: SEQ ID NO: 36 (peptide)
peptide: Palmitoyl-KGCRFGTCTVQKLAHQIYQFTDKGRQDSAPVDPSSPHSY-NH2
modifications: ends and bridges not checked
On to B21, for which the “CLR/RAMP1 EC50” value in assay [1] was found to be 0.6 nM. Also, the “CLR/RAMP2 EC50” value in assay [2] amounted to 0.9 nM.

B22: SEQ ID NO: 63 (peptide)
peptide: Palmitoyl-KGCRFGTCTVQKLAHQIYQFTDKDKDNVAPRSKSSPHSY-NH2
modifications: ends and bridges not checked
Turning to B22, the “CLR/RAMP1 EC50” value in assay [1] came out at 180 nM. Also, in assay [2], the “CLR/RAMP2 EC50” value is 7 nM.

B23: SEQ ID NO: 60 (peptide)
peptide: Ac-KGCRFGTCTVQKLAHQIYQFTDKDKDNVAPVDPSSPHSY-NH2
modifications: ends and bridges not checked
B23: in assay [1], the “CLR/RAMP1 EC50” value was determined as 16 nM. Moreover, the “CLR/RAMP2 EC50” value in assay [2] is 3 nM.

B24: SEQ ID NO: 40 (peptide)
peptide: Palmitoyl-KTKKTLRTGCRFGTCTVQKLAHQIYQFTDKDKDNVAPVDPSSPHSY-NH2
modifications: ends and bridges not checked
For B24, the “CLR/RAMP1 EC50” value in assay [1] stood at 2 nM. In assay [2], the “CLR/RAMP2 EC50” value is 1 nM.

B25: SEQ ID NO: 42 (peptide)
peptide: TKKTLRTGCRFGTCTVQKLAHQIYQFTDKDKDNVAPVDPSSPHSY
modifications: miniPEG- at N-terminus; K(Pal) at position 2 (miniPEG-TK(Pal)K...); -NH2
B25: in assay [2], the “CLR/RAMP2 EC50” value was 0.2 nM.

B26: SEQ ID NO: 53 (human ADM) (peptide)
peptide: Ac-FGCRFGTCTVQKLAHQIYQFTDKDKDNVAPRSKISPQGY-NH2
modifications: ends and bridges not checked
Take B26: the “CLR/RAMP1 Max Activity” value in assay [1] is 69 % of positive control. The “CLR/RAMP2 Max Activity” value in assay [2] was 102 % of positive control.

B27: SEQ ID NO: 33 (peptide)
peptide: Ac-K(Palmitoyl)GCRFGTCTVQKLAHQIYQFTPAGRQDSAPVDPSSPHSY-NH2
modifications: cysteine pairing not given here
Turning to B27, the “CLR/RAMP1 EC50” value in assay [1] was 0.3 nM. Also, the “CLR/RAMP2 EC50” value in assay [2] amounted to 0.4 nM.

B28: SEQ ID NO: 45 (peptide)
peptide: Palmitoyl-GCRFGTCTVQKLAHQIYQFTDKDKDNSAPVDPSSPHSY-NH2
modifications: ends and bridges not checked
As to B28, in assay [1], the “CLR/RAMP1 EC50” value came to 0.1 nM. In addition, the “CLR/RAMP2 EC50” value in assay [2] was 0.3 nM.

B29: SEQ ID NO: 30 (peptide)
peptide: Palmitoyl-KGCRFGTCTVQKLAHQIYQFTDKDKDNSAPVDPSSPHSY-NH2
modifications: cysteine pairing not given here
On to B29, for which the “CLR/RAMP1 EC50” value in assay [1] came to 0.4 nM. For the same molecule, the “CLR/RAMP2 EC50” value in assay [2] amounted to 0.6 nM.

B30: SEQ ID NO: 110 (peptide)
peptide: Palmitoyl-KGCRFGTCTVQKLAHQIYQFTDKDAPVDPSSPHSY-NH2
modifications: ends and bridges not checked
Consider B30, for which, in assay [1], the “CLR/RAMP1 EC50” value is 43 nM. For the same molecule, the “CLR/RAMP2 EC50” value in assay [2] was 6.4 nM.

B31: SEQ ID NO: 51 (peptide)
peptide: [AEEA]K(Palmitoyl)GCRFGTCTVQKLAHQIYQFTDKDKQDSAPVDPSSPHSY-NH2
modifications: ends and bridges not checked
As for B31, in assay [1], the “CLR/RAMP1 EC50” value turned out to be 0.2 nM and the “CLR/RAMP1 Max Activity” value is 65 % of positive control. In addition, the “CLR/RAMP2 EC50” value in assay [2] was determined as 0.3 nM.

B32: SEQ ID NO: 47 (peptide)
peptide: KGCRFGTCTVQKLAHQIYQFTDKDKSAPVDPSSPHSY
modifications: miniPEG- at N-terminus; K(PAL); -NH2
Consider B32, for which, in assay [2], the “CLR/RAMP2 EC50” value came out at 0.4 nM and the “CLR/RAMP2 Max Activity” value is 64 % of positive control.

B33: SEQ ID NO: 31 (peptide)
peptide: Palmitoyl-KGCRFGTCTVQKLAHQIYQFTPAGRQDSAPVDPSSPHSY-NH2
modifications: cysteine pairing not given here
Turning to B33, the “CLR/RAMP1 EC50” value in assay [1] is 0.8 nM. Also, the “CLR/RAMP2 EC50” value in assay [2] was 0.9 nM.

B34: SEQ ID NO: 46 (peptide)
peptide: [AEEA]K(Palmitoyl)GCRFGTCTVQKLAHQIYQFTDKDKDSAPVDPSSPHSY-NH2
modifications: ends and bridges not checked
Turning to B34, in assay [2], the “CLR/RAMP2 EC50” value was found to be 0.5 nM and the “CLR/RAMP2 Max Activity” value was 104 % of positive control.

B35: SEQ ID NO: 41 (peptide)
peptide: Ac-TK(Palmitoyl)KTLRTGCRFGTCTVQKLAHQIYQFTDKDKDNVAPVDPSSPHSY-NH2
modifications: ends and bridges not checked
For the molecule B35, in assay [1], the “CLR/RAMP1 EC50” value was 0.4 nM. Also, in assay [2], the “CLR/RAMP2 EC50” value came to 0.9 nM.
